The text below walks through data of the DeepSol protein solubility set.

The nature of this data set: soluble on expression in E. coli; label from the status in PepcDB or PDB records.
Take “TDPDCDRIGVLVKNKSGEYKVLTGNQTGVLLTHYIISSLKDTGKLPANGAVIKTIVTSEMTRKITEDYDMKLIDVLTGFKYIGEKIKEFEETNSNTYLFGFEESYGCLAGTFVRDKDAVVAATLVCEMALYYKNKGLSLDDALNELYEKYGF”: the “soluble on expression in E. coli” value was “not soluble”.
Regarding “PTKLETFPLDVLVNTAAEDLPRGVDPSRKENHLSDEDFKAVFGMTRSAFANLPLWKQQNLKKEKGLF”, the “soluble on expression in E. coli” value is given as “soluble”.
The same measure for “NTGIVSSFFTYTGPAHGTQWDEIDIEFLGKDTTKVQFNYYTNGVGGHEKVISLGFDASKGFHTYAFDWQPGYIKWYVDGVLKHTATANIPSTPGKIMMNLWNGTGVDDWLGSYNGANPLYAEYDWVKYTSNQTGGSFFEPFNSYNSGTWEKADGYSNGGVFNCTWRANNVNFTNDGKLKLGLTSSAYNKFDCAEYRSTNIYGYGLYEVSMKPAK”: “soluble”; for “MEPLMNQSLHICGCCKRELPHEAFYTNKRTGTLDNYCKECRKANTRKRRDLRRCTSFENKPVSYPVITEVKDPALRMLLILHARQVVAESISRKQEKEKLNTLWEE”: “not soluble”.
Next, “MGKEERAKWVNDEYAKAYEKMKSYGEQVKKADKPRVLYLKRSDLTLQGNDNFIKESMELAGADNIAAEAKSITMEEILKLDPEIILLSDFDKFLPQDLYENRIEGQDWSSVSAVVNKRVYKTPVGIYRWDAPGVETPLMMFWLGKMLQPEILEHHHHHH”: “not soluble”.
For the sequence “GPGSMMLQPWLRRGSGATQKYVNGEFKDVPQGDALLVCVPEAHTWFSLHKMLCDPECRRRYPYTQSKKELILRIRRFLNDTLVDQIPALASVQRALEELSFMQPPSDTEAKFKSSLTIEQVPRIMAAVEASRTHSWEDVANTFAAMLKDPRIKNEDAMRMARIFDEMFAENERPK”, the “soluble on expression in E. coli” value is “not soluble”.
Next, “MNITNEREDGEKMGSKNYTDVLIAGKIYTLGGLEEETYLQQVASYLNDKIAGLHRQDGFRKQPEDYQNVMTYLNIADDYFKEREHAGLLAVQKEELEKETYRLKHELVSTQMKLEAMRAELEKYKALETLEHSRGKEAEKEEQARK”: “soluble”; “MADINPNHTIYVNNLNEKVKKDELKRSLHMVFTQFGEIIQLMSFRKEKMRGQAHIVFKEVSSASNALRALQGFPFYGKPMRIQYAREDSDVISRAKGTFVEKRQKSTKIAKKPYEKPAKNGKSAAEPTQKEPQETDGPGLPNNILFCSNIPEGTEPEQIQTIFSQFPGLREVRWMPNTKDFAFIEYESEDLSEPARQALDNFRITPTQQITVKFASK”: “not soluble”; “MRIDILTLFPGMFSGVLNESILKKAQEKGAVDIRLIDFREFADNKHKTVDDYPYGGGAGMVLKPQPIFDAVEHVTAGSPGARIILLCPQGERYTQKKAEELAKETHLVLICGHYEGYDERIRQYLATDEISIGDYILTGGELGAMVIVDSVVRLLPGVLGNEASPVDDSFSSGLLEYPQYTRPADFRGMKVPDILLSGNHQLIAEWREKESLRRTFLRRPDLLDEYPLTDKQKQWLKEWEKERE”: “not soluble”.
Turning to “MFMNKPFGSKRCEPFHESEHLCEAFAITEAILARYQRGKRSFTSSEKSGLAALIKRIPYDILVEVLDQSGFTPTSNATPPVDYLAMMEHTMTHGASITHALQYLNDLMTKCTGCPGIRTYYHNPNDDVLADPVHDTAALIDETTAVGKSVVTKQYLNIAGAHYIPLIHGDIVVGCVEVPRFSGNLEKLPSFPSLIRAVTCTAHKFIEEARINWNREKAEAMLQMATRLARDNLDETVLASSIMNTVKSLTESARCSLFLVKDDKLEAHFEDGNVVSIPKGTGIVGYVAQTGETVNIVDAYADDRFNREVDKATGYRTKTILCMPVMYEGTIVAVTQLINKLDLTTESGLRLPRVFGKRDEELFQTFSMFAGASLRNCRINDRLLKEKKKSDVILDVVTVLSNTDIRDVDGIVRHALHGAKKLLNADRSTLFLVDKERNELCSRMADSVAGKEIRFPCGQGIAGTVAASGVGENIQDAYQDPRFNREVDKQLGYRTQTILCEPIILNGEILAVVQLVNKLDTSGEVTVFTEDDRDTFRVFSLFAGISINNSHLLEFAVKAGREVMELNEHRATLFNKNVPSRAVKRVTAITKVEREAVLVCELPSFDVTDVEFDLFRARESTDKPLDVAAAIAYRLLLGSGLPQKFGCSDEVLLNFILQCRKKYRNVPYHNFYHVVDVCQTIHTFLYRGNVYEKLTELECFVLLITALVHDLDHMGLNNSFYLKTESPLGILSSASGNTSVLEVHHCNLAVEILSDPESDVFDGLEGAERTLAFRSMIDCVLATDMAKHGSALEAFLASAADQSSDEAAFHRMTMEIILKAGDISNVTKPFDISRQWAMAVTEEFYRQGDMEKERGVEVLPMFDRSKNMELAKGQIGFIDFVAAPFFQKIVDACLQGMQWTVDRIKSNRAQWERVLETRLSTSSGNNSSTR”, the “soluble on expression in E. coli” value was “not soluble”.
The same measure for “MSLLTKSAENKRNRKDDSMRPGQQLTLSIDHQTDFGYFLTDGEDTILLHNSEMTEDIEDRDEVEVFIYVDQQERLAATMKIPIISADEYGWVEVVDKVEDMGVFVDVGLSKDALVATEHLPPYEDVWPQKGDKLYCMLKVTNRGRMFAKPAPEDIISELFTDASEDLMNKELTGTVYRLIASGSFVITDDGIRCFIHPSERKEEPRLGSRVTGRVIQVKEDGSVNLSLLPRKQDAMSVDAECILTYMRMRNGAMPYSDKSQPDDIRERFNMSKAAFKRALGHLMKNGKVYQENGWTYEKKEGGSHHHHHH”: “soluble”; for “MTNELLIEIGTEELPAGVINPALDYLKDKINSLLNARQVKTYGTPRRLTLYFKDFENERKEKKEVIWGPPKNVAYDEKGNPTKALEGFLKKNNASLEEVKVLKKDKGEYVAIVRKVIEKSPIEKLQEEFEEILLSVPFPKRMRWTSSKRITFSRPVRWILALFNGQVLKLRFGELESSNKTYGHRFLSKGEVTINNPADYEKTLKEHYVIPDFNERKEIILRALEKSSQEVGGKPSYPEGLVEEVTNLVEYPFPVLGKFDEKYLELPPLVITTVAAHHQRFFCFEKDGKLLNYFLGISNNKPNEKIKEGYEKVLRARLEDALFFYREDLKKDLKSLIPELKKVLFHPKVGSMYEKEERMEKIAQKLCPLLKCEWEKVKEAVWLSKVDLLTEMVKELDELQGYMGYVYAKAQGYDEEVAKALWEQYFPRSLEDKVPETTTGTILSLSDKIDNLYSFFKAGEIPKGSSDPYGLRRSAFGIIKIVDVKNLDLNLEDFKEIYGEFKQYPKLVEFLKQRLISYLEDYPVDIVRAVLNVYSPMEPYKVINSVRVLYEASKSPEFPSVVEAAKRVIRIIPKDWKNYEVDEKLLSEEAERELYQKLTEFENKELKSPLELLPLKEYIDKFFDNVKVMAEDEKIRNNRISLLKRVENLFRTFGDFNEIVIKEG”: “soluble”; for “MTPEAPYASLTEIEHLVQSVCKSYRETCQLRLEDLLRQRSNIFSREEVTGYQRKSMWEMWERCAHHLTEAIQYVVEFAKRLSGFMELCQNDQIVLLKAGAMEVVLVRMCRAYNADNRTVFFEGKYGGMELFRALGCSELISSIFDFSHSLSALHFSEDEIALYTALVLINAHRPGLQEKRKVEQLQYNLELAFHHHLCKTHRQSILAKLPPKGKLRSLCSQHVERLQIFQHLHPIVVQAAFPPLYKELFST”: “soluble”.
Next, “QILSPNYKARADSNAFYQKPVYPSRGVIYDRNGELLVYNEPAYDLVAVTKEVGEFDTLALCQTLNVEPEYVRKRFQDIRDRRINPGYSPYVPQLLLAQLNPREAGRFQEQLFKFPGFSIRPRAIRQYKYHGAAHVLGYLSEANMRDLERDSSLIAGDYVGRSGIERQYEKTLRGEKGIEVLLRDARGRIKGHYSDGKYDSPAIPGRDLTLSIDSKLQTLGEQLMQGKRGAIVMIEPETGEVLCLVSSPSYDPSLLAGKDRGKNHLEMEHDRNKPLYARAIQATYPPGSTFKPAQGAIFLQEGVIRPTDAFSCYHGFPPLNNRPACHSHGSP”: “not soluble”; “PIFTLNTNIKATDVPSDFLSSTSALVGNILSKPGSYVAVHINTDQQLSFGGSTNPAAFGTLMSIGGIEPSRNRDHSAKLFDHLNTKLGIPKNRMYIHFVNLNGDDVGWNGTTF”: “soluble”; “MMLVRSVFRSQLRPSVSGGLQSASCYSSLSAASAEAERTIREGPRNDWSRDEIKSVYDSPLLDLLFHGAQVHRHVHNFREVQQCTLLSIKTGGCSEDCSYCPQSSRYSTGVKAQRLMSKDAVIDAAKKAKEAGSTRFCMGAAWRDTIGRKTNFSQILEYIKEIRGMGMEVCCTLGMIEKQQALELKKAGLTAYNHNLDTSREYYPNVITTRSYDDRLETLSHVRDAGINVCSGGIIGLGEAEEDRIGLLHTLATLPSHPESVPINALLAVKGTPLEDQKPVEIWEMIRMIGTARIVMPKAMVRLSAGRVRFSMSEQALCFLAGANSIFTGEKLLTTPNNDFDADQLMFKTLGLIPKPPSFSEDDSESENCEKVASASH”: “not soluble”.
Next, “MGSDKIHHHHHHMKISVSKNDLENALRYLQAFLDKKDASSIASHIHLEVIKEKLFLKASDSDIGLKSYIFTQSSDKEGVGTINGKKFLDIISCLKDSNIILETKDDSLAIKQNKSSFKLPMFDADEFPEFPVIDPKVSIEVNAPFLVDAFKKIAPVIEQTSHKRELAGILMQFDQKHQTLSVVGTDTKRLSYTQLEKISIHSTEEDISCILPKRALLEILKLFYENFSFKSDGMLAVIENEMHTFFTKLIDGNYPDYQKILPKEYISSFTLGKEEFKESIKLCSSLSSTIKLTLEKNNALFESLDSEHSETAKTSVEIEKGLDIEKAFHLGVNAKFFLEALNALGTTQFVLRCNEPSSPFLIQESLDEKQSHLNAKISTLMMPITL”: “not soluble”; “MELKPTAPPIFTGRPFVVAWDVPTQDCGPRLKVPLDLNAFDVQASPNEGFVNQNITIFYRDRLGLYPRFDSAGRSVHGGVPQNVSLWAHRKMLQKRVEHYIRTQESAGLAVIDWEDWRPVWVRNWQDKDVYRRLSRQLVASRHPDWPPDRIVKQAQYEFEFAAQQFMLETLRYVKAVRPRHLWGFYLFPDCYNHDYVQNWESYTGRCPDVEVARNDQLAWLWAESTALFPSVYLDETLASSRHGRNFVSFRVQEALRVARTHHANHALPVYVFTRPTYSRRLTGLSEMDLISTIGESAALGAAGVILWGDAGYTTSTETCQYLKDYLTRLLVPYVVNVSWATQYCSRAQCHGHGRCVRRNPSASTFLHLSTNSFRLVPGHAPGEPQLRPVGELSWADIDHLQTHFRCQCYLGWSGEQCQWDHRQAAGGASEAWAGSHLTSLLALAALAFTWTL”: “not soluble”; “PYARFQSAMFDKDTLIVSYDAERGEPRGARKKTVNKEEAGLGDCINCAMCVQVCPVGIDIRNGLQYQCIGCAACIDACDEIMDKMGYPRGL”: “not soluble”.
For the sequence “DIQMTQSPASLSASVGETVTITCRASGNIHNYLAWYQQKQGKSPQLLVYYTTTLADGVPSRFSGSGSGTQYSLKINSLQPEDFGSYYCQHFWSTPRTFGGGTKLEIKRADAAPTVSIFPPSSEQLTSGGASVVCFLNNFYPKDINVKWKIDGSERQNGVLNSWTDQDSKDSTYSMSSTLTLTKDEYERHNSYTCEATHKTSTSPIVKSFNRNEC”, the “soluble on expression in E. coli” value was “soluble”.
“MSLKILVIGGTGNIGLPLIQYLDQQVGVQVVAGAHNLHKDEQLLATYPDVEIRRFDFLDETTFDAALRGIQKVFFVRPPQLAKPKQDMWPFLKCLQAHHIEQVVFVSLMGVEHNPMTPHHQIEQMIEQLQLPYTFIRPSFFMQNLNTTHRVDIQQNHDLFIPAGRSKTSFIDTRDIGEIAGVALLDTQYLQQKLTVTGPEALTYQQIAALMTESFGHPVTYHRPSLWRFRRVMLKRGIKKDYVNVMVMLYLITQLGNAKRVTDTAEKVLGHAPHTMTTYLRDYADQLQEGHHHHHH”: the “soluble on expression in E. coli” value is recorded as “not soluble”.
